Measured values taken from IntAct's records for PubMed 26030876.

B1: Autophagy-related protein 101 (Homo sapiens), Q9BSB4 (parent)
chain: MNCRSEVLEVSVEGRQVEEAMLAVLHTVLLHRSTGKFHYKKEGTYSIGTVGTQDVDCDFIDFTYVRVSSEELDRALRKVVGEFKDALRNSGGDGLGQMSLEFYQKKKSRWPFSDECIPWEVWTVKVHVVALATEQERQICREKVGEKLCEKIINIVEVMNRHEYLPKMPTQSEVDNVFDTGLRDVQPYLYKISFQITDALGTSVTTTMRRLIKDTLAL
partner: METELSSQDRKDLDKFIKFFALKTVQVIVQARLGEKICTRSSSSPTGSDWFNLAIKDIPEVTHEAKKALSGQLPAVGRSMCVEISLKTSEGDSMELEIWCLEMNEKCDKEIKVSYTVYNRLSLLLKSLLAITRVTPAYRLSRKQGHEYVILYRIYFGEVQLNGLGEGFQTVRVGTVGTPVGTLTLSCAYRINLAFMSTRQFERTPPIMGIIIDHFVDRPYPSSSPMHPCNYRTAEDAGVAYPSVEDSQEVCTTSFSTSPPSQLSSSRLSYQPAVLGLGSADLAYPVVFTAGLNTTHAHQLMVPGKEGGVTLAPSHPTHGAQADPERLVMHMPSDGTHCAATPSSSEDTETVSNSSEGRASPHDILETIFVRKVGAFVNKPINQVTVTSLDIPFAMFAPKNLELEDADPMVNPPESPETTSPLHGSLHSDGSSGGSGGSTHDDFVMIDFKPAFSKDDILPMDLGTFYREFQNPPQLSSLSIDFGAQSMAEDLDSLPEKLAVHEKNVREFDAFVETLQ

Variants of: B1
Settings: with atg13_mouse Atg13, Q91YI1

Variant | effect of a mutation on the interaction
T63R | decreasing interaction strength
L30R;H31R | disrupting interaction strength
